Experimental data taken from PMC12594388, “Enzymatic properties of a L-asparaginase without secondary glutaminase activity from Streptomyces scabrisporus” (PLOS One, 2025).

B1: S. scabrisporus L-asparaginase (Embleya scabrispora) (protein)
chain: MRPEDTVPHESTTRYAELAEVVRSGFVESRHFGSLVALAPDGRPALELGVPNEPVVPRSSAKPFQALACLRAGAPLSGAHVAIAAGSHTGQDFHVDAVEDILTRSGLTFDALGCPPSRPEDEDTYQEMIARGEENTRERMNCSGKHAAMLAACVASGWPTEGYLDPGHPLQVLVREGIEELAGESVAHTAVDGCGAPVFAMTLTGLARGVRALATATTGPERVVAKAMREHPAYVGGDGQANTEVMRLLPGVLVKGGAEGVFVAATTAGHAVAVKVIDGSPRATTALALAALHRLGVDVSAASEWTTVPVLGGGLPVGEVRVTSHLG
notes: codon-optimised gene in pET28a(+) (NdeI/EcoRI; pET28a-AnsSs), E. coli BL21(DE3), HisTrap purified, 34 kDa
B2: R. etli L-asparaginase (Rhizobium etli CFN 42) (protein)
chain: MTPSEDFVVTDRGGIVENSHRVHAAVVDAKGRLLYALGNPTRMTLARSAAKPAQALAILETEGVAGYGFDDADIALMCASHSSEDRHIARTRAMLSKIKAEEADLRCGGHPSLSEMVNRSWIKQDFIPTAVCSNCSGKHVGMLAGARAIGAGTDGYHLPDHPMQGRVKRTVAELCDLDAGDVEWGTDGCNLPTPAFPLDRLGRIYAKLASAADGSDAGEGQSTRCAALAHIFRAMARHPEMVAGEGRYCTMLMRAFDGALVGKLGADASYAIGVRASDATRQLGTDGALGISVKIEDGNLEMLYAVVTELLERLGIGSPDVRSQLASFHHPQRVNTMGVTTGGVSFPFKLRGSKSNVDDPRLAAVAR
notes: pET28a (NcoI/EcoRI; pET28a-AnsRe), E. coli BL21(DE3), HisTrap purified, 38 kDa

Tests used:
[1] = substrate: NC(=O)C[C@H](N)C(=O)O; assay: Nessler ammonium assay, Michaelis-Menten fit; format: biochemical, Embleya scabrispora; conditions: pH 10 (optimum), 37 °C, 0.5-20 mM asparagine
Description: Nessler ammonium assay, Michaelis-Menten fit on S. scabrisporus L-asparaginase

[2] = substrate: NC(=O)C[C@H](N)C(=O)O; assay: Nessler ammonium assay, Michaelis-Menten fit; format: biochemical, Rhizobium etli; conditions: physiological pH (printed as pH 7 and as phosphate pH 7.4), 37 °C

| Protein | Km [1] [mM] | kcat [1] [s⁻¹] | Km [2] [mM] | kcat [2] [s⁻¹] |
| --- | --- | --- | --- | --- |
| B1 | 7.361 ± 1.78 | 40.8 ± 2 | – | – |
| B2 | – | – | 15.9 ± 4.7 | 140.3 ± 7 |
